According to patent US20190330277A1:

Key:
Test in all cases: ELISA, variant from culture supernatant on Ni-NTA plate
[1] = target: RB94 sc9 DS-CAV1 A149C-Y458C L373R Long S190V
[2] = target: 391-2-DS-Cav1_ sc9_S485C-A490C
[3] = target: RB94 DS-CAV1 T369C-T455C Long
391-2-DS-Cav1-BZGJ9 Long = target: 391-2-DS-Cav1-BZGJ9 Long
[4] = target: 391-2 sc9 DS-Cav1 98C-362C
[5] = target: 391-2-DS-Cav1_ I28C-G464C
[6] = target: 391-2-DS-Cav1-sc9 100C-362C
[7] = target: 391-2-DS-Cav1_ sc9_I395C-A490C
[8] = target: sc9-10_DS-CAV1_bRSV(RB94)_Fd_pm1_ig1
[9] = target: 391-2 hu/bov-DS-Cav1-BZGJ9 Long
[10] = target: RB94 sc9 DS-CAV1 N183GC-N428C L373R Long
[11] = target: 391-2-DS-Cav1-sc9 100C-361C
[12] = target: RB94 sc9 DS-CAV1 A149C-Y458C L373R Long
391-2-DS-Cav1-BZGJ9_gyc1 = target: 391-2-DS-Cav1-BZGJ9_gyc1
391-2_DS-Cav1-tzsc5 = target: 391-2_DS-Cav1-tzsc5
[13] = target: 391-2-DS-Cav1-sc9deleteFS 100C-362C
[14] = target: sc9-10_DS-CAV1_bRSV(RB94)_Fd_hp1_fp2_ig1
[15] = target: RB94 hu/bov DS-Cav1 Long FdPL
[16] = target: 391-2-DS-Cav1-sc9deleteFS 100C-361C
[17] = target: sc9-10_DS-CAV1_bRSV(RB94)_Fd_pm1_fp1_ig1
[18] = target: RB94 sc9 DS-CAV1 A149C-Y458C L373R Long K226L
391-2-DSCav1- F-SC_7R = target: 391-2-DSCav1- F-SC_7R
[19] = target: 391-2-DS-Cav1_ sc9_S398C-S485C
[20] = target: RB94 hu/bov DS-CAV1 A149C-Y458C Long
[21] = target: RB94 site 0 hRSV bovSurf DS-Cav1-BZGJ9 Long FdPL
[22] = target: RB94 sc9 DS-CAV1 N183GC-N428C L373R Long S190V
[23] = target: RB94 sc9 DS-CAV1 N183GC-N428C L373R
391-2_DS-Cav1-tzsc3 = target: 391-2_DS-Cav1-tzsc3
391-2-DS-Cav1-BZGJ9_gyc7 = target: 391-2-DS-Cav1-BZGJ9_gyc7
[24] = target: 391-2-DS-Cav1-BZGJ9 Long K226L
[25] = target: 391-2-DS-Cav1-sc9 99C-362C
391-2-DS-Cav1-IP-4 = target: 391-2-DS-Cav1-IP-4
[26] = target: RB94 sc9 DS-CAV1 A149C-Y458C L373R
[27] = target: 391-2-DS-Cav1_ S398C-S485C
391-2_DS-Cav1-tzsc7 = target: 391-2_DS-Cav1-tzsc7
391-2-DS-Cav1-IP-5 = target: 391-2-DS-Cav1-IP-5
[28] = target: 391-2-DS-Cav1-sc9deleteFS 98C-361C
391-2-DS-Cav1-BZGJ9_gyc5 = target: 391-2-DS-Cav1-BZGJ9_gyc5
[29] = target: 391-2-site 0 hRSV DSCav1-BZGJ9 Long

Substance: motavizumab (antibody)
- ELISA binding value [1]: 0.537
- ELISA binding value [2]: 0.595
- ELISA binding value [3]: 0.448
- ELISA binding value (391-2-DS-Cav1-BZGJ9 Long): 1.55
- ELISA binding value [4]: 0.75
- ELISA binding value [5]: 1.21
- ELISA binding value [6]: 0.603
- ELISA binding value [7]: 0.891
- ELISA binding value [8]: 2.22
- ELISA binding value [9]: 1.7
- ELISA binding value [10]: 0.488
- ELISA binding value [11]: 1.63
- ELISA binding value [12]: 0.512
- ELISA binding value (391-2-DS-Cav1-BZGJ9_gyc1): 2.12
- ELISA binding value (391-2_DS-Cav1-tzsc5): 1.57
- ELISA binding value [13]: 0.503
- ELISA binding value [14]: 1.8
- ELISA binding value [15]: 1.44
- ELISA binding value [16]: 0.477
- ELISA binding value [17]: 1.81
- ELISA binding value [18]: 0.486
- ELISA binding value (391-2-DSCav1- F-SC_7R): 0.649
- ELISA binding value [19]: 0.487
- ELISA binding value [20]: 0.79
- ELISA binding value [21]: 2.21
- ELISA binding value [22]: 0.617
- ELISA binding value [23]: 1.04
- ELISA binding value (391-2_DS-Cav1-tzsc3): 0.785
- ELISA binding value (391-2-DS-Cav1-BZGJ9_gyc7): 0.977
- ELISA binding value [24]: 1.94
- ELISA binding value [25]: 0.393
- ELISA binding value (391-2-DS-Cav1-IP-4): 0.933
- ELISA binding value [26]: 0.564
- ELISA binding value [27]: 0.545
- ELISA binding value (391-2_DS-Cav1-tzsc7): 1.99
- ELISA binding value (391-2-DS-Cav1-IP-5): 1.83
- ELISA binding value [28]: 0.899
- ELISA binding value (391-2-DS-Cav1-BZGJ9_gyc5): 2.04
- ELISA binding value [29]: 2.08
